Source: US20190316091A1

Target: immune complexes of Dylight 650-labeled bovine serum albumin, polyclonal rabbit anti-BSA and human serum complement (bovine) (UniProt P02769)
Assay: cell-based or functional assay

Sequence of UniProt P02769 (P02769 25-607, one chain of several): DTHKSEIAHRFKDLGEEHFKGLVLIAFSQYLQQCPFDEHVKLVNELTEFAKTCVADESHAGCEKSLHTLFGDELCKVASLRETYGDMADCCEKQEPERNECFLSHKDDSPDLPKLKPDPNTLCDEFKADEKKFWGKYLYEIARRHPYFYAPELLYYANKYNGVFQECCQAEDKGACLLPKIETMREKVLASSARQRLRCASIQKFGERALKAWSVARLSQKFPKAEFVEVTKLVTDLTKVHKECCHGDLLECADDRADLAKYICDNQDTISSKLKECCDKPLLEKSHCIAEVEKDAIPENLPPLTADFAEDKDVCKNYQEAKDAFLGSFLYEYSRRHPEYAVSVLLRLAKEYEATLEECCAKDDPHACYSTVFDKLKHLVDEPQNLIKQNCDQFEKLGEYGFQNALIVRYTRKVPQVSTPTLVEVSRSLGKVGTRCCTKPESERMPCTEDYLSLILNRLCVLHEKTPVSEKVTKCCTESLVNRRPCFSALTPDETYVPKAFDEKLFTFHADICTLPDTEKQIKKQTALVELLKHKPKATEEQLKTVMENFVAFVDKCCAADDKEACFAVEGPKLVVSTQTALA

uptake of labeled immune complexes by PMA-activated U937 macrophages in co-culture (flow cytometry fluorescence): 2 fold
Substance: complement receptor 1 (CR1) over-expressed on the surface of cultured erythroid cells (from UniProt P17927 42-2039)
